Measurements: publication PMC7397135

Target: recombinant heterodimer of human FCGRT/B2M (human neonatal IgG Fc receptor) (human) (UniProt P55899)
Assay: electrochemical receptor sensor (amperometric I-T, time-current method); hFcγRn adsorbed in two layers on a gold nanoparticle-chitosan glassy carbon electrode with thionine and HRP as signal amplification, blocked with BSA; IgG in solution; constant voltage -0.38 V; data collected after 20 s; 8 mmol/L H2O2 in the test substrate; ultrapure water as blank; change rate of response current against IgG concentration, Ka by the double reciprocal (Lineweaver-Burk) method

UniProt P55899, sequence (P55899 24-297, chain 1 of 2): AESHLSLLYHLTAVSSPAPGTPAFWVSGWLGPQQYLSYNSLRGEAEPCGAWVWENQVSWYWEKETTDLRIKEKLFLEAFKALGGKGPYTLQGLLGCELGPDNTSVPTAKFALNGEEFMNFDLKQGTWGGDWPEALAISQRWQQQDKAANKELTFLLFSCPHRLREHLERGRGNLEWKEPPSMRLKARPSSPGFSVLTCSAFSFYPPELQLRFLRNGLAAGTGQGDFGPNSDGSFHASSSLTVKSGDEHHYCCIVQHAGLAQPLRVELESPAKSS
UniProt P55899, sequence (P61769 21-119, chain 2 of 2, further chain): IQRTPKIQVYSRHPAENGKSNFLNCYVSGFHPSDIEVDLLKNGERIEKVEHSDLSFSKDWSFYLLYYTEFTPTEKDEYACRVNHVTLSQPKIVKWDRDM

Substance	Ka (interconnected allosteric constant) [mol/L]
Bovine IgG (antibody)	1.59e-22
Donkey IgG (antibody)	1.14e-21
Horse IgG (antibody)	1.2e-22
Human IgG (antibody)	1.02e-23
Quail IgY (antibody)	8.61e-20
Rabbit IgG (antibody)	2.29e-21
Sheep IgG (antibody)	2.17e-21
